We go through 19 molecules from PMC7703752, “Proteome-level assessment of origin, prevalence and function of leucine-aspartic acid (LD) motifs” (Bioinformatics, 2019).

The target in assay [1] is T1, FAT domain of human FAK (892–1052) (human, UniProt Q05397 892-1052).
T1 chain: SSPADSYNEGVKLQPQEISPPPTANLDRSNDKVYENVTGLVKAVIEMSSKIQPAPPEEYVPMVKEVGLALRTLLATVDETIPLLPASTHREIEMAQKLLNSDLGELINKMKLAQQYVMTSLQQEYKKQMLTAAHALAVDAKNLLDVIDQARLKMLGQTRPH
Kind of assay: MST.

Assay [2] deals with T2, Human α-parvin-CHC (residues 242–372) (human, UniProt Q9NVD7 242-372).
T2 chain: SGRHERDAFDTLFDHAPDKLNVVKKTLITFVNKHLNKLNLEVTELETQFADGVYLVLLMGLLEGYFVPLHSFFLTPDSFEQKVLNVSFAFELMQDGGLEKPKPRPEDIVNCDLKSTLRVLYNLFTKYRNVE
Kind of assay: MST.

The target in assay [3] is T3, FAT domain of human FAK (892-1052) (human, UniProt Q05397 892-1052).
T3 construct: focal adhesion kinase (FAK), human, FAT domain, residues 892-1052; 15N-labelled (M9 minimal medium) in the NMR titrations; also called FAK FAT; focal adhesion targeting domain; source: E. coli BL21, expressed as GST-fusion protein (pGexP2), purified as described previously (Arold et al., 2002)
T3 sequence (looked up): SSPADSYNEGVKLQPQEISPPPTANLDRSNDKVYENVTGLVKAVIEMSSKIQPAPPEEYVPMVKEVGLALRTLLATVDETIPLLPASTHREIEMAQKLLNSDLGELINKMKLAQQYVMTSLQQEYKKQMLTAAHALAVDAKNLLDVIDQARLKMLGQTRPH
In words: fluorescence polarisation + MST; the 'quantitative' methods, summed up in one sentence for each peptide: direct anisotropy (protein serially diluted, FITC-Ahx peptide 0.1 μM; 20 mM HEPES pH 7.5, 150 mM NaCl, 2 mM EDTA, 2 mM DTT, 0.005% Tween-20; room temperature) and MST (protein diluted from 560 μM FAT or 530 μM α-parvin, labelled peptide 0.1 μM, 0.05% Tween-20, 25 °C); ITC in selected cases. Particulars: both partners purified. In general terms: In fluorescence polarisation assays a small probe gives low polarisation when free and higher when bound to something large.

Assay [4] concerns the target T2, Human α-parvin-CHC (residues 242–372). In words: FP.
The target of assay [5] is T4, Human α-parvin-CHC (residues 242-372) (human, UniProt Q9NVD7 242-372).
T4 construct: α-parvin, human, C-terminal CH domain, residues 242-372; also called second CH domain of α-parvin; source: E. coli BL21, expressed as GST-fusion protein (pGex 6P1), purified as described previously (Lorenz et al., 2008)
T4 sequence (looked up): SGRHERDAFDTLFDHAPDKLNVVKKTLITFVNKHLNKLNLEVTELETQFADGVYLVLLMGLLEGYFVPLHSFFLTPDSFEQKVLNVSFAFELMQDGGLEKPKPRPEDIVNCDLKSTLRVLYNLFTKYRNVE
In words: fluorescence polarisation + other: differential scanning fluorimetry; the 'qualitative' methods, summed up in one sentence for each peptide: anisotropy competition (unlabelled peptide at 100 and 250 μM against 0.1 μM FITC-Ahx-LD4 with 10 μM FAT or 25 μM α-parvin) and DSF (10 μM protein, peptide at 100 and 250 μM; 20 mM HEPES pH 7.5, 150 mM NaCl, 2 mM EDTA, 1 mM TCEP). Particulars: both partners purified.

The target in assay [6] is T3, FAT domain of human FAK (892-1052). Described as above. Particulars: both partners purified.
Assay [7] addresses T4, Human α-parvin-CHC (residues 242-372). Described as above. As to conditions: both partners purified. This is another data set of the same source.
For assay [8], the target named is T3, FAT domain of human FAK (892-1052). The assay is described as above. As to conditions: both partners purified. This is another data set of the same source.
Assay [9] deals with T1, FAT domain of human FAK (892–1052). In words: ITC. A general note: Isothermal titration calorimetry measures the heat released or taken up as one component is titrated into another.
Assay [10] shares this target. Kind of assay: FP.
The target in assay [11] is T4, Human α-parvin-CHC (residues 242-372). In words: fluorescence polarisation + MST; the 'quantitative' methods, summed up in one sentence for each peptide: direct anisotropy (protein serially diluted, FITC-Ahx peptide 0.1 μM; 20 mM HEPES pH 7.5, 150 mM NaCl, 2 mM EDTA, 2 mM DTT, 0.005% Tween-20; room temperature) and MST (protein diluted from 560 μM FAT or 530 μM α-parvin, labelled peptide 0.1 μM, 0.05% Tween-20, 25 °C); ITC in selected cases. As to conditions: both partners purified.

For assay [12], the target named is T3, FAT domain of human FAK (892-1052). The description is as above. Particulars: both partners purified. This is another data set of the same source.
Assay [13] addresses T5, FAT domain of human FAK (892–1052) (human, UniProt Q05397 892-1052).
T5 construct: focal adhesion kinase (FAK), human, FAT domain, residues 892-1052; 15N-labelled for the NMR titrations; Purification and fate of the GST are told only in the Supplementary Material and in the cited work (Arold et al., 2002); also called FAK FAT; four-helix FAT domain from FAK; source: E. coli BL21, expressed as GST-fusion protein
T5 sequence (looked up): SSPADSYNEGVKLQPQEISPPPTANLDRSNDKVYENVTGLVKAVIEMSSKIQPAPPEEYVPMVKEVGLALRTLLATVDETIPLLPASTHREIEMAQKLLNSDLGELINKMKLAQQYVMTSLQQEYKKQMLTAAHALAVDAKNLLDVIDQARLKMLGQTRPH
In words: fluorescence polarisation + MST + ITC + other: differential scanning fluorimetry; synthesized peptides against recombinant LDBDs in vitro; direct anisotropy with labelled candidate peptides, anisotropy competition of unlabelled peptides against fluorescently labelled known LD motifs, ITC, MST and DSF summed up together; 25°C, 20 mM HEPES pH 7.5, 150 mM NaCl, 2 mM EDTA, 1 mM TCEP, unless stated otherwise. As to conditions: both partners purified.

In assay [14] the target is T6, Human α-parvin-CHC (residues 242–372) (human, UniProt Q9NVD7 242-372).
T6 construct: α-parvin, human, second CH domain (CHC), residues 242-372; Purification and fate of the GST are told only in the Supplementary Material and in the cited work (Lorenz et al., 2008); also called second CH domain of α-parvin; source: E. coli BL21, expressed as GST-fusion protein
T6 sequence (looked up): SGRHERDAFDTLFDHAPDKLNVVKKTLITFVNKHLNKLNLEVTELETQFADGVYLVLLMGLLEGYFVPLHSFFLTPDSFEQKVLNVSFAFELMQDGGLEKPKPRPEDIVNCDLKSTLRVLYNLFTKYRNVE
The assay is described as above. As to conditions: both partners purified.

Where no end group is shown, it is not given here. The star is where a group is joined. FITC = O=C1OC2(c3ccc(O)cc3Oc3cc(O)ccc32)c2ccc(NC(=S)*)cc21; Ahx = NCCCCCC(=O)O

The molecule GDLDNLDAILGDLTSSD (also: N-terminal FITC-Ahx only in labelled form) [NCOA3 (nuclear receptor coactivator 3) LD motif peptide] displayed a Kd in assay [1] of 261 µM.

For SELDNLEEILDDLQNSQ (also: N-terminal FITC-Ahx only in labelled form) [NCOA2 (nuclear receptor coactivator 2) LD motif peptide], in [2], the Kd was determined as 251 µM.

B1: CCDC158 LD motif peptide, FITC-Ahx-labelled (peptide)
peptide: {FITC-Ahx}-DPTRDLKQLLQELRSVIN
notes: core motif 903-912; labelled form, used in direct anisotropy and MST; also called CD158; source: synthetic peptide, bought: GenScript
Regarding B1, the binding result in [3] is “binds”.

SDWEVDDLLCSLLSPPA (also: N-terminal FITC-Ahx only in labelled form) [CREB3 LD motif peptide]: the Kd in assay [2] came to 110 µM; in [4], 101 µM.

B2: CCDC158 LD motif peptide, unlabelled (peptide)
peptide: DPTRDLKQLLQELRSVIN
notes: core motif 903-912; form without label, used in ACA, DSF and NMR; also called CD158; source: synthetic peptide, bought: GenScript
In the case of B2, the binding result in [5] and in assay [6] was “binds” throughout.

B3: RALGAPA1 LD motif peptide, unlabelled (peptide)
peptide: EDVLDELLQYLGVT
notes: core motif 1680-1689; form without label, used in ACA and DSF; also called RGPA1; source: synthetic peptide, bought: GenScript
In the case of B3, the binding result in assay [7] and in assay [8] was “binds” throughout.

SQEEIDKLLMDLESFSQ (also: N-terminal FITC-Ahx only in labelled form) [PPP2R3A LD motif peptide]: the Kd turned out to be 19.7 µM in assay [9], 90 µM in assay [1], 23.3 µM in assay [4] and 41 µM in assay [10].

B4: EPB41L5 LD motif peptide, unlabelled (peptide)
peptide: ATDELDALLASLTENLID
notes: Band 4.1-like protein 5, human; core motif 634-643; form without label, used in ACA, DSF and ITC; also called E41L5; Band 4.1-like protein 5 peptide; source: synthetic peptide, bought: GenScript
For the molecule B4, the binding result in [7] and in assay [8] was “binds” each time.

B5: LPP LD motif peptide, unlabelled (peptide)
peptide: AEIDSLTSILADLESS
notes: Lipoma-preferred partner, human; core motif 123-132; form without label, used in ACA, DSF and NMR; also called lipoma-preferred partner peptide; source: synthetic peptide, bought: GenScript
Turning to B5, in assay [7], the binding result is listed as “binds”.

B6: LPP LD motif peptide, FITC-Ahx-labelled (peptide)
peptide: {FITC-Ahx}-AEIDSLTSILADLESS
notes: Lipoma-preferred partner, human; core motif 123-132; labelled form, used in direct anisotropy and MST; source: synthetic peptide, bought: GenScript
With B6, the binding result in assay [11] and in assay [12] was “binds” throughout.

B7: C16orf71 LD motif peptide (peptide)
peptide: EAWDLDDILQSLQGQ
modifications: also: N-terminal FITC-Ahx only in labelled form
notes: predicted LD motif of human C16orf71; also called CP071; source: synthetic peptide, bought: GenScript
Take B7: the binding result in [13] and in assay [14] was “binds” in each case. The Kd in assay [2] was 32.3 µM; in assay [1] it was 17.2 µM; in assay [4], 52 µM.

B8: PPP2R3A LD motif peptide, unlabelled (peptide)
peptide: SQEEIDKLLMDLESFSQ
notes: Serine/threonine-protein phosphatase 2A regulatory subunit B'' subunit alpha, human; core motif 508-517; form without label, used in ACA, DSF and ITC; source: synthetic peptide, bought: GenScript
On to B8, for which the binding result in [7] and in assay [8] was “binds” in each case.

B9: EPB41L5 LD motif peptide, FITC-Ahx-labelled (peptide)
peptide: {FITC-Ahx}-ATDELDALLASLTENLID
notes: Band 4.1-like protein 5, human; core motif 634-643; labelled form, used in direct anisotropy and MST; also called E41L5; source: synthetic peptide, bought: GenScript
Take B9: the binding result in assay [11] and in assay [12] was “binds” throughout.

B10: PPP2R3A LD motif peptide, FITC-Ahx-labelled (peptide)
peptide: {FITC-Ahx}-SQEEIDKLLMDLESFSQ
notes: Serine/threonine-protein phosphatase 2A regulatory subunit B'' subunit alpha, human; core motif 508-517; labelled form, used in direct anisotropy and MST; source: synthetic peptide, bought: GenScript
As for B10, the binding result in [11] and in [12] was “binds” throughout.

On to DAALDDLIDTLGGP (also: N-terminal FITC-Ahx only in labelled form) [CAST LD motif peptide], for which the Kd was determined as 273 µM in assay [2] and 178 µM in assay [1].

B11: LPP (Lipoma-preferred partner) LD motif peptide (peptide)
peptide: AEIDSLTSILADLESS
modifications: also: N-terminal FITC-Ahx only in labelled form
notes: predicted LD motif of human LPP (Lipoma-preferred partner); source: synthetic peptide, bought: GenScript
For the molecule B11, in [14], the binding result is on record as “binds”.

As to DPTRDLKQLLQELRSVIN (also: N-terminal FITC-Ahx only in labelled form) [CCDC158 (Coiled-coil domain-containing protein 158) LD motif peptide], the Kd in assay [10] worked out at 41.6 µM.

As for SASSATRELDELMASLSD (also: N-terminal FITC-Ahx only in labelled form) [Paxillin LD4 peptide], the Kd in assay [9] was 19.7 µM; in assay [2], 3.1 µM; in [1], 55.5 µM; in [4] it was 24.5 µM; in assay [10], 7.1 µM.

AEIDSLTSILADLESS (also: also used as N-terminal FITC-Ahx-labelled form): the Kd was found to be 169 µM in [2] and 97.4 µM in [10].

The term Kd denotes the equilibrium constant for the complex coming apart.
